# Measurements from paper PMC3030945 (The Journal of Membrane Biology, 2010).
# What was measured:
# [1] = format: physicochemical; details: all lipid mixtures; van't Hoff analysis of CD partitioning data
# [2] = Isothermal titration calorimetry: enthalpy of melittin partitioning into LUVs; format: physicochemical; details: for −TΔS: from ΔG = ΔH − TΔS, ± joint confidence limits
# [3] = CD titration of melittin with SUVs: free energy of partitioning; format: physicochemical; details: 5 mM lipid, estimated from measured partitioning free energy ΔG
# [4] = Isothermal titration calorimetry: enthalpy of melittin partitioning into SUVs; format: physicochemical; details: POPC SUVs, 25°C; ITC, 10 μl of 100 μM melittin into 5 mM lipid
# [5] = CD spectroscopy: helical content of membrane-bound melittin; format: physicochemical; details: for peptide helical fraction f α: 25°C, CD molar ellipticity at 222 nm
# [6] = Hydrophobic-effect free energy ΔG hϕ calculated from measured heat capacity; format: physicochemical; details: for hydrophobic free energy ΔG hϕ: calculated from measured heat capacity
# [7] = cited from earlier work
# [8] = various methods, mole-fraction partition coefficients, ref Beschiaschvili and Baeuerle 1991, Kuchinka and Seelig 1989, Ladokhin et al. 2000, Ladokhin and White 1999, Schwarz and Beschiaschvili 1989, Vogel 1981; cited from earlier work
substance,measurement,setting,value
melittin,heat capacity change,[1],approximately −0.5 kcal mol^−1 K^−1
same,change of heat capacity,"[2]; LUVs at different lipid content, slope of enthalpy vs temperature (Fig. 4b)",about −0.5 kcal/molK
same,−TΔS,"[2]; POPC 50%:POPG 50% LUVs, 25°C",−2.8 (±1) kcal mol^−1
same,−TΔS,"[2]; POPC 50%:POPG 50% LUVs, 40°C",3.08 (±1) kcal mol^−1
same,−TΔS,"[2]; POPC 50%:POPG 50% LUVs, 50°C",8.73 (±1.1) kcal mol^−1
same,−TΔS,"[2]; POPC 50%:POPG 50% LUVs, 60°C",16.99 (±1.5) kcal mol^−1
same,−TΔS,"[2]; POPC 75%:POPG 25% LUVs, 25°C",−4.42 (±0.6) kcal mol^−1
same,−TΔS,"[2]; POPC 75%:POPG 25% LUVs, 40°C",3.24 (±0.8) kcal mol^−1
same,−TΔS,"[2]; POPC 75%:POPG 25% LUVs, 50°C",8.32 (±0.4) kcal mol^−1
same,−TΔS,"[2]; POPC 75%:POPG 25% LUVs, 60°C",15.06 (±1.1) kcal mol^−1
same,−TΔS,"[2]; POPC 90%:POPG 10% LUVs, 25°C",−5.9 (±1.5) kcal mol^−1
same,−TΔS,"[2]; POPC 90%:POPG 10% LUVs, 40°C",−2.25 (±0.9) kcal mol^−1
same,−TΔS,"[2]; POPC 90%:POPG 10% LUVs, 50°C",3.3 (±1) kcal mol^−1
same,−TΔS,"[2]; POPC 90%:POPG 10% LUVs, 60°C",5.73 (±1.1) kcal mol^−1
same,−TΔS,"[2]; POPC 100%:POPG 0% LUVs, 40°C",−12.3 (±1.6) kcal mol^−1
same,−TΔS,"[2]; POPC 100%:POPG 0% LUVs, 50°C",−6.2 (±1.4) kcal mol^−1
same,−TΔS,"[2]; POPC 100%:POPG 0% LUVs, 60°C",−3.2 (±1.3) kcal mol^−1
same,heat capacity associated with partitioning,"[2]; all lipid mixtures (POPC:POPG 0–50% POPG), independent of lipid composition",about −0.5 kcal mol^−1 K^−1
same,fraction of melittin bound,[3],95%
same,"enthalpy change, before corrections",[4],≈ −10 kcal mol^−1
same,fraction of peptide bound,"[5]; POPC50:POPG50, 5°C, CD",≈ 0.57
same,peptide helical fraction f α,[5]; POPC50:POPG50 LUVs,0.71
same,peptide helical fraction f α,[5]; POPC75:POPG25 LUVs,0.73
same,peptide helical fraction f α,[5]; POPC90:POPG10 LUVs,0.71
same,peptide helical fraction f α,"[5]; POPC LUVs, Luo and Baldwin formula",0.71
same,α-helical content,"[5]; melittin bound to a lipid membrane at 25°C, CD",~ 70%
same,helical fraction of peptide (or the fraction of peptide bound),"[5]; pure POPC, 5°C, CD",≈ 0.57
same,fraction of peptide bound,"[5]; pure POPC, 60°C, CD",≈ 0.63
same,T h (temperature at which ΔH hϕ has a bulk-phase transfer value of 0),[6]; POPC,326 K
same,T s (temperature at which ΔS hϕ has a bulk-phase transfer value of 0),[6]; POPC,336 K
same,T h,[6]; POPC50:POPG50,292 K
same,T s,[6]; POPC50:POPG50,305 K
same,hydrophobic free energy ΔG hϕ,"[6]; POPC50:POPG50, 25°C",−7.50 (±0.52) kcal mol^−1
same,T h,[6]; POPC75:POPG25,294 K
same,T s,[6]; POPC75:POPG25,306 K
same,hydrophobic free energy ΔG hϕ,"[6]; POPC75:POPG25, 25°C",−6.87 (±0.30) kcal mol^−1
same,T h,[6]; POPC90:POPG10,296 K
same,T s,[6]; POPC90:POPG10,316 K
same,hydrophobic free energy ΔG hϕ,"[6]; POPC90:POPG10, 25°C",−6.68 (±0.22) kcal mol^−1
same,contribution of the hydrophobic effect to the total free energy,"[6]; POPC, 25°C",approximately 79%
same,hydrophobic free energy ΔG hϕ,"[6]; POPC, 25°C",−4.88 (±2.83) kcal mol^−1
same,electrical valence (formal valence),"[7]; formal peptide charge as stated, no reference given",5–6
same,effective charge,"[7]; literature value, ref Beschiaschvili and Baeuerle 1991",≈ 2
same,free energy of partitioning of unfolded melittin into the bilayer interface of POPC vesicles,[8],−6 to −7 kcal mol^−1
